The text below walks through data of patent US20230242586A1 (University of California, published 2023).

The target in this experiment is T1, biotinylated K-Ras(G12D)·GppNHp (His-Avi-TEV-KRAS (G12D)) (human, biotin on the Avi tag (co-expressed BirA)).
T1 construct: Loaded with GppNHp; the protocol for the biotinylated proteins tells of no tag cleavage; Used in the TR-FRET assay
The experiment can be described thus: TR-FRET Ras-Raf interaction assay: biotinylated K-Ras(G12D)·GppNHp with GST-Raf1-RBD, peptide titrated (competition). A general note: In TR-FRET formats the signal depends on donor and acceptor labels being close together.

Bridge positions count the residues as written; N and C are the ends. Square brackets hold non-standard residues; d marks the D form.

B1: KD1 (peptide)
peptide: {CH2CO}-[dY]IIVTEKFIWVHHCG-NH2
modifications: thioether N-14
notes: Chemically synthesized linker-free thioether macrocycle; in the mRNA display selection the same peptide stood as a peptide-mRNA/cDNA fusion
Regarding B1, the binding result is given as “binds”.

B2: KD17 (peptide)
peptide: {CH2CO}-[dY]NYPYRPLELGWYCG-NH2
modifications: thioether N-14
notes: as for B1
In the case of B2, the binding result was “binds”.
